From patent US20200231683A1 (Bristol-Myers Squibb, published 2020)
Residue numbers refer to the chain shown, from its start. Values belong to the binder of their own block, whether it stands above or below them.

Assays:
[1] = target: T1, human CXCR4 (C-X-C chemokine receptor 4) (human, UniProt P61073 1-352); assay: cell-based or functional assay
[2] = target: T1, human CXCR4 (C-X-C chemokine receptor 4); assay: flow cytometry on CEM cells (native human CXCR4), FITC anti-human IgG secondary
Experimental: The antibodies were then mixed with CEM cells and allowed to bind before being detected with a FITC-conjugated anti-human IgG secondary antibody. The cells were then analyzed by fluorescence cytometry.

[3] = target: T1, human CXCR4 (C-X-C chemokine receptor 4); assay: displacement of 100 pM ^125I-CXCL12 from CEM cells
Experimental: The anti-CXCR4 antibodies were serially diluted 1:3 to yield a range of concentrations from 300 nM to 137 pM. […] An irrelevant antibody of the same isotype was used as a negative control.

T1 sequence (P61073 whole entry): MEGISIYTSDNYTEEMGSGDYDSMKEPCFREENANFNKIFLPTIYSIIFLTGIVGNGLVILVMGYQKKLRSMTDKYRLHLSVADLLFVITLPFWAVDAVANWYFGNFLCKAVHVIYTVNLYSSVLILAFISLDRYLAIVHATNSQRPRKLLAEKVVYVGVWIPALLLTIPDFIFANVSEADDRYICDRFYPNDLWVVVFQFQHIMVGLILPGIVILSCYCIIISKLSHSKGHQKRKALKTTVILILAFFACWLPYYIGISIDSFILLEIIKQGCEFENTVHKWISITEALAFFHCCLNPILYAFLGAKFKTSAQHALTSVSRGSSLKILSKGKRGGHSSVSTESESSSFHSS

- EC50 for inhibition of CXCL12-induced calcium flux in CEM cells [1]: 0.57 nM
- EC50 [2]: 80 nM
- EC50 [3]: 28.6 nM
B1: D1 human anti-CXCR4 monoclonal antibody (antibody, V domains shown)
VH: EVQLVQSGGGLVQPGGSLRLSCAAAGFTFSSYSMNWVRQAPGKGLEWVSYISSRSKTIYYADSVKGRFTISRDNARNSLYLQMNSLRDEDTAVYYCARDYGGQPPYYYYYGMDVWGQGTTVTVSS
VL: VIWVTQSPSSLSASVGDRVTITCRTSQGISSWLAWYQQKPEKAPELLIYAASSLQSGVPSRFSGSGSGTDFTLTISSLQPEDFATYYCQQYNSYPRTFGQGTKVEIK

- EC50 [2]: 290 nM
B2: E2 human anti-CXCR4 monoclonal antibody (antibody, V domains shown)
VH: B1 VH with K56R, R76K, Y107H
VL: B1 VL with V1E, W3V, V4L, T25A, S31N, E45K, L46S
